Experimental data reported in PMC10942789, “Biomolecular condensates can both accelerate and suppress aggregation of α-synuclein” (Science Advances, 2022).

Target: the molecule itself
Experiment: thioflavin T aggregation kinetics + transmission electron microscopy of fibrils; self-association into amyloid fibrils; 40 uM FL-αSyn or αSyn-108, or 160 uM NACore; 50 mM Hepes (pH 7.4), 100 mM NaCl, 100 uM EDTA, 20 uM ThT, 37°C, continuous linear shaking; without coacervates (reference), with supernatant or with coacervate droplets

B1: NACore peptide (αSyn-68-78) (peptide)
peptide: GAVVTGVTAVA
notes: alpha-synuclein residues 68-78, from the non-amyloid-β component; source: synthetic peptide; bought: CASLO ApS (Denmark)
- binding result: binds
